Read-outs that look alike come from different tables or passages of the source.
Columns and labels:
Assay in all cases: AUC
[1] = target: HIV-1 capsid C-terminal domain construct CA144-231 (HIV-1) (UniProt P12493)
[2] = target: HIV-1 capsid C-terminal domain construct CA146-231 (HIV-1) (UniProt P12493)
[3] = target: HIV-1 capsid C-terminal domain construct CA146-231 (HIV-1) (UniProt P12493); remark: listed apart in the source
[4] = target: wild-type, full length HIV-1 capsid protein (CAFL, residues 1-231) (HIV-1) (UniProt P12493)

HIV-1 capsid C-terminal domain construct CA144-231 (from UniProt P12493 276-363) (domain or fragment)
Kd [1]: 16 µM

HIV-1 capsid C-terminal domain construct CA146-231 (from UniProt P12493 278-363) (domain or fragment)
Kd [2]: 23 µM | Kd [3]: 24 µM

wild-type, full length HIV-1 capsid protein (CAFL, residues 1-231) (from UniProt P12493) (natural protein)
Kd [4]: 20 µM
